From US20140087995A1 (published 2014)
Numbered stars: 1 amine (or outer) side, 2 acyl side, 3 side chain; on linkers, the order of the positions; unused ones are H or OH. Bridge positions count the residues as written; N and C are the ends. Side chains are listed from the residue outwards. Ends that are not written are not given here. * marks the point of attachment. C20 diacid = O=C(O)CCCCCCCCCCCCCCCCCCC(=O)*; C16 diacid = O=C(O)CCCCCCCCCCCCCCC(=O)*; γGlu = O=C(O)[C@H](CCC(=O)[*:2])N[*:1]; C14 diacid = O=C(O)CCCCCCCCCCCCC(=O)*; AEEA = NCCOCCOCC(=O)O

Assays:
rat calcitonin receptor [1] = molecular target: T1, rat calcitonin receptor (rat, UniProt P32214 25-516); assay: ratio of IC50 on rat calcitonin receptor to IC50 on rat amylin receptor (reference m40)
T1 construct: whole, on cells; Membranes of transiently transfected BHK tk'ts 13 cells; also called rCTR; rat calcitonin (a) receptor
T1 sequence (looked up): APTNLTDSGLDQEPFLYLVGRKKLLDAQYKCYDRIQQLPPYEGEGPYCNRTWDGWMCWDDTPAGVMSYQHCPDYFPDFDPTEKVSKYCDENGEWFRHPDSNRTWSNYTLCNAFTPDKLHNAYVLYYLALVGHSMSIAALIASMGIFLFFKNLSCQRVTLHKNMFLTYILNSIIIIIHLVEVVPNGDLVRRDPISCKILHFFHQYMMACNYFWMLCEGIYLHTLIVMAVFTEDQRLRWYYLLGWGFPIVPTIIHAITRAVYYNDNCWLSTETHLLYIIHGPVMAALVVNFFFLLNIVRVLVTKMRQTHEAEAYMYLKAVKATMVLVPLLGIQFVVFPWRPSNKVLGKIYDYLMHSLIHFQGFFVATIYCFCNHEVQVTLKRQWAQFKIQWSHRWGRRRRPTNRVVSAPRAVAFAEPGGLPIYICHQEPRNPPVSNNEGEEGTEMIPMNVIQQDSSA

[2] = molecular target: T2, human calcitonin receptor (human, UniProt P30988 25-474); assay: ratio of IC50 on human calcitonin receptor to IC50 on human amylin receptor (reference m42), SPA competition
T2 construct: whole, on cells; Membranes of stably transfected cells; also called hCTR; hCT
T2 sequence (looked up): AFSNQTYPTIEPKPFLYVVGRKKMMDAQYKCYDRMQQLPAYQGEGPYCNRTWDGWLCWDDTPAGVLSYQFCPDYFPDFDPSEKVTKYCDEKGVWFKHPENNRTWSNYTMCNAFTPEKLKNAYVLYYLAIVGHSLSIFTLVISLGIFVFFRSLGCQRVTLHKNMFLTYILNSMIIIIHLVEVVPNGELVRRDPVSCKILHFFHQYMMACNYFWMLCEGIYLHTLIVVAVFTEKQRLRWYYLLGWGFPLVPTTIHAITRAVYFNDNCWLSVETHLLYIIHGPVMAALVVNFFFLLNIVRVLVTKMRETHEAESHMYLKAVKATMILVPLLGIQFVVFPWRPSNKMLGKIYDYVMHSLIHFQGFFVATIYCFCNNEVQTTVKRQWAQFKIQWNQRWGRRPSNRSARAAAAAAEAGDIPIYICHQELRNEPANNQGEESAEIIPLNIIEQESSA
Procedure: The resulting pellet was resuspended, homogenized and centrifuged (20.000 rpm, 15 min) in a buffer containing 20 mM Na-HEPES and 0.1 mM EDTA (pH 7.4, buffer 2). The resulting pellet was resuspended in buffer 2 and protein concentration was measured (BCA protein Assay, Pierce). The homogenate was kept cold during the whole procedure. The membranes were kept at −80° C. until use. The assay was performed in a 384 well Optiplate (PerkinElmer) in a total volume of 40 ul. Membranes were mixed with SPA beads. Final concentration of membranes 35 ng/μL final and SPA beads was 0.05 mg/well. Test-compounds were dissolved in DMSO and further diluted in assay buffer (50 mM Hepes, pH 7.4, 1 mM CaCl2, 5 mM MgCl₂, 0.1% OA and 0.02% Tween20). […] The final mixture was incubated with shaking at 400 rpm for 120 min at 25° C. prior to centrifugation (1500 rpm, 10 min). Samples were analyzed on TopCounter™ (Packard). The IC₅₀ was calculated using (one site binding competition analysis) GraphPad Prism5 as a measure of receptor affinity.
Membranes were prepared in the following way; the cells were rinsed with PBS and incubated with Versene for approximately 5 min before harvesting. The cells were flushed with PBS and the cell-suspension was centrifuged for 5 min at 1000 rpm. Cells were homogenized (Ultrathurrax) in a buffer containing 20 mM Na-HEPES and 10 mM EDTA (pH 7.4) and centrifuged at 20.000 rpm for 15 min. The resulting pellet was resuspended, homogenized and centrifuged (20.000 rpm, 15 min) in a buffer containing 20 mM Na-HEPES and 0.1 mM EDTA (pH 7.4, buffer 2). The resulting pellet was resuspended in buffer 2 and protein concentration was measured (BCA protein Assay, Pierce). The homogenate was kept cold during the whole procedure. The membranes were kept at −80° C. until use. Assay was performed in a 384 well Optiplate (PerkinElmer) in a total volume of 40 ul. Membranes were mixed with SPA beads.

rat calcitonin receptor [3] = molecular target: T1, rat calcitonin receptor; assay: SPA competition with 125I-calcitonin on membranes of BHK tk'ts 13 cells with rat calcitonin receptor (Assay VIII)
[4] = molecular target: T3, rat amylin receptor (rat calcitonin receptor + rat RAMP 3) (rat, UniProt P32214 25-516; Q9JJ73 23-147); assay: SPA competition with 125I-rat amylin on membranes of BHK tk'ts 13 cells with rat calcitonin receptor + rat RAMP3 (Assay VI)
T3 construct: whole, on cells; Membranes of transiently transfected BHK tk'ts 13 cells; also called rAmylin-R; rat amylin 3(a) receptor
T3 sequence (looked up) 1: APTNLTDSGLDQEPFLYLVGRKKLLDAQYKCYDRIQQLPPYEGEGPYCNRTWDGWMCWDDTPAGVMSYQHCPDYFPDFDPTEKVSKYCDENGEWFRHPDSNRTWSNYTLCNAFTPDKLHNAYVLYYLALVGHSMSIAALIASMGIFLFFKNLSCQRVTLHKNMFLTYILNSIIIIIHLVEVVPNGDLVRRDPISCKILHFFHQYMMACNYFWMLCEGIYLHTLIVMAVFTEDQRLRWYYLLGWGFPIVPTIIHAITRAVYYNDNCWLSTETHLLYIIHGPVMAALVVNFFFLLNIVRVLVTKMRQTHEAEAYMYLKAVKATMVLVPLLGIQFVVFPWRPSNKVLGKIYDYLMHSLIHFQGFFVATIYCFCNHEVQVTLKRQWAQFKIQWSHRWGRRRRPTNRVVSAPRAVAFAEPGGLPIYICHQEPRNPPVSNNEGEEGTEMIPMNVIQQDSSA
T3 sequence (looked up) 2: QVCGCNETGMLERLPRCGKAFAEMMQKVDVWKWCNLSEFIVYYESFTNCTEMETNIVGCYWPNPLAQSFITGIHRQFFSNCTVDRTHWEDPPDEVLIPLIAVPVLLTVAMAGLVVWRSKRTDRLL

B1: N^ε1-[2-[2-[2-[[2-[2-[2-[[(4S)-4-carboxy-4-(19-carboxynonadecanoylamino)butanoyl]amino]ethoxy]ethoxy]acetyl]amino]ethoxy]ethoxy]acetyl]-[Arg17,Pro21,Pro27,Pro31 … (peptide)
peptide: K([AEEA-AEEA-γGlu-C20 diacid])CNTATCATQRLANFLRHSSPNFGAIPSSTPVGSNTY-NH2
modifications: disulfide 2-7; N-terminus assumed
SMILES: CC[C@H](C)[C@H](NC(=O)[C@H](C)NC(=O)CNC(=O)[C@H](Cc1ccccc1)NC(=O)[C@H](CC(N)=O)NC(=O)[C@@H]1CCCN1C(=O)[C@H](CO)NC(=O)[C@H](CO)NC(=O)[C@H](Cc1c[nH]cn1)NC(=O)[C@H](CCCNC(=N)N)NC(=O)[C@H](CC(C)C)NC(=O)[C@H](Cc1ccccc1)NC(=O)[C@H](CC(N)=O)NC(=O)[C@H](C)NC(=O)[C@H](CC(C)C)NC(=O)[C@H](CCCNC(=N)N)NC(=O)[C@H](CCC(N)=O)NC(=O)[C@@H](NC(=O)[C@H](C)NC(=O)[C@@H]1CSSC[C@H](NC(=O)[C@@H](N)CCCCNC(=O)COCCOCCNC(=O)COCCOCCNC(=O)CC[C@H](NC(=O)CCCCCCCCCCCCCCCCCCC(=O)O)C(=O)O)C(=O)N[C@@H](CC(N)=O)C(=O)N[C@@H]([C@@H](C)O)C(=O)N[C@@H](C)C(=O)N[C@@H]([C@@H](C)O)C(=O)N1)[C@@H](C)O)C(=O)N1CCC[C@H]1C(=O)N[C@@H](CO)C(=O)N[C@@H](CO)C(=O)N[C@H](C(=O)N1CCC[C@H]1C(=O)N[C@H](C(=O)NCC(=O)N[C@@H](CO)C(=O)N[C@@H](CC(N)=O)C(=O)N[C@H](C(=O)N[C@@H](Cc1ccc(O)cc1)C(N)=O)[C@@H](C)O)C(C)C)[C@@H](C)O
notes: Synthetic acylated analogue of human amylin; also called compound 96
Ratio rCT/rAmylin binding (rat calcitonin receptor [1]): 118 | Ratio hCT/hAmylin binding [2]: 79.6 | IC50 (rat calcitonin receptor [3]): 62.2 nM | IC50 [4]: 0.529 nM

B2: N^ε1-[2-[2-[2-[[2-[2-[2-[[(4S)-4-carboxy-4-(19-carboxynonadecanoylamino)butanoyl]amino]ethoxy]ethoxy]acetyl]amino]ethoxy]ethoxy]acetyl]-[Arg17,Pro21,Pro27,Pro34 … (peptide)
peptide: K([AEEA-AEEA-γGlu-C20 diacid])CNTATCATQRLANFLRHSSPNFGAIPSSTNVGPNTY-NH2
modifications: disulfide 2-7; N-terminus assumed
SMILES: CC[C@H](C)[C@H](NC(=O)[C@H](C)NC(=O)CNC(=O)[C@H](Cc1ccccc1)NC(=O)[C@H](CC(N)=O)NC(=O)[C@@H]1CCCN1C(=O)[C@H](CO)NC(=O)[C@H](CO)NC(=O)[C@H](Cc1c[nH]cn1)NC(=O)[C@H](CCCNC(=N)N)NC(=O)[C@H](CC(C)C)NC(=O)[C@H](Cc1ccccc1)NC(=O)[C@H](CC(N)=O)NC(=O)[C@H](C)NC(=O)[C@H](CC(C)C)NC(=O)[C@H](CCCNC(=N)N)NC(=O)[C@H](CCC(N)=O)NC(=O)[C@@H](NC(=O)[C@H](C)NC(=O)[C@@H]1CSSC[C@H](NC(=O)[C@@H](N)CCCCNC(=O)COCCOCCNC(=O)COCCOCCNC(=O)CC[C@H](NC(=O)CCCCCCCCCCCCCCCCCCC(=O)O)C(=O)O)C(=O)N[C@@H](CC(N)=O)C(=O)N[C@@H]([C@@H](C)O)C(=O)N[C@@H](C)C(=O)N[C@@H]([C@@H](C)O)C(=O)N1)[C@@H](C)O)C(=O)N1CCC[C@H]1C(=O)N[C@@H](CO)C(=O)N[C@@H](CO)C(=O)N[C@H](C(=O)N[C@@H](CC(N)=O)C(=O)N[C@H](C(=O)NCC(=O)N1CCC[C@H]1C(=O)N[C@@H](CC(N)=O)C(=O)N[C@H](C(=O)N[C@@H](Cc1ccc(O)cc1)C(N)=O)[C@@H](C)O)C(C)C)[C@@H](C)O
notes: Synthetic acylated analogue of human amylin; also called compound 98
Ratio rCT/rAmylin binding (rat calcitonin receptor [1]): 176 | Ratio hCT/hAmylin binding [2]: 74.1 | IC50 (rat calcitonin receptor [3]): 24.1 nM | IC50 [4]: 0.137 nM

B3: N^ε1-[(4S)-4-carboxy-4-(15-carboxypentadecanoylamino)butanoyl]-[Arg17,Pro21,Pro27,His34]-h-amylin (peptide)
peptide: K([γGlu-C16 diacid])CNTATCATQRLANFLRHSSPNFGAIPSSTNVGHNTY-NH2
modifications: disulfide 2-7; N-terminus assumed
SMILES: CC[C@H](C)[C@H](NC(=O)[C@H](C)NC(=O)CNC(=O)[C@H](Cc1ccccc1)NC(=O)[C@H](CC(N)=O)NC(=O)[C@@H]1CCCN1C(=O)[C@H](CO)NC(=O)[C@H](CO)NC(=O)[C@H](Cc1c[nH]cn1)NC(=O)[C@H](CCCNC(=N)N)NC(=O)[C@H](CC(C)C)NC(=O)[C@H](Cc1ccccc1)NC(=O)[C@H](CC(N)=O)NC(=O)[C@H](C)NC(=O)[C@H](CC(C)C)NC(=O)[C@H](CCCNC(=N)N)NC(=O)[C@H](CCC(N)=O)NC(=O)[C@@H](NC(=O)[C@H](C)NC(=O)[C@@H]1CSSC[C@H](NC(=O)[C@@H](N)CCCCNC(=O)CC[C@H](NC(=O)CCCCCCCCCCCCCCC(=O)O)C(=O)O)C(=O)N[C@@H](CC(N)=O)C(=O)N[C@@H]([C@@H](C)O)C(=O)N[C@@H](C)C(=O)N[C@@H]([C@@H](C)O)C(=O)N1)[C@@H](C)O)C(=O)N1CCC[C@H]1C(=O)N[C@@H](CO)C(=O)N[C@@H](CO)C(=O)N[C@H](C(=O)N[C@@H](CC(N)=O)C(=O)N[C@H](C(=O)NCC(=O)N[C@@H](Cc1c[nH]cn1)C(=O)N[C@@H](CC(N)=O)C(=O)N[C@H](C(=O)N[C@@H](Cc1ccc(O)cc1)C(N)=O)[C@@H](C)O)C(C)C)[C@@H](C)O
notes: Synthetic acylated analogue of human amylin
Ratio rCT/rAmylin binding (rat calcitonin receptor [1]): 327 | Ratio hCT/hAmylin binding [2]: 18.5 | IC50 (rat calcitonin receptor [3]): 404 nM | IC50 [4]: 1.24 nM

B4: N^ε1-[(4S)-4-carboxy-4-(13-carboxytridecanoylamino)butanoyl]-[Arg17,Pro21,Pro27,His34]-h-amylin (peptide)
peptide: K([γGlu-C14 diacid])CNTATCATQRLANFLRHSSPNFGAIPSSTNVGHNTY-NH2
modifications: disulfide 2-7; N-terminus assumed
SMILES: CC[C@H](C)[C@H](NC(=O)[C@H](C)NC(=O)CNC(=O)[C@H](Cc1ccccc1)NC(=O)[C@H](CC(N)=O)NC(=O)[C@@H]1CCCN1C(=O)[C@H](CO)NC(=O)[C@H](CO)NC(=O)[C@H](Cc1c[nH]cn1)NC(=O)[C@H](CCCNC(=N)N)NC(=O)[C@H](CC(C)C)NC(=O)[C@H](Cc1ccccc1)NC(=O)[C@H](CC(N)=O)NC(=O)[C@H](C)NC(=O)[C@H](CC(C)C)NC(=O)[C@H](CCCNC(=N)N)NC(=O)[C@H](CCC(N)=O)NC(=O)[C@@H](NC(=O)[C@H](C)NC(=O)[C@@H]1CSSC[C@H](NC(=O)[C@@H](N)CCCCNC(=O)CC[C@H](NC(=O)CCCCCCCCCCCCC(=O)O)C(=O)O)C(=O)N[C@@H](CC(N)=O)C(=O)N[C@@H]([C@@H](C)O)C(=O)N[C@@H](C)C(=O)N[C@@H]([C@@H](C)O)C(=O)N1)[C@@H](C)O)C(=O)N1CCC[C@H]1C(=O)N[C@@H](CO)C(=O)N[C@@H](CO)C(=O)N[C@H](C(=O)N[C@@H](CC(N)=O)C(=O)N[C@H](C(=O)NCC(=O)N[C@@H](Cc1c[nH]cn1)C(=O)N[C@@H](CC(N)=O)C(=O)N[C@H](C(=O)N[C@@H](Cc1ccc(O)cc1)C(N)=O)[C@@H](C)O)C(C)C)[C@@H](C)O
notes: as for B3
Ratio rCT/rAmylin binding (rat calcitonin receptor [1]): 280 | Ratio hCT/hAmylin binding [2]: 23.5 | IC50 (rat calcitonin receptor [3]): 707 nM | IC50 [4]: 2.52 nM
